Common to all, as to experiment: BLI
(In general: In BLI a coated tip is dipped into the sample, and binding shifts an interference pattern.)

The target of assay [1] is Wuhan S6P SARS-CoV-2 full length spike trimer (SARS-CoV-2, Wuhan, UniProt P0DTC2, stabilised).
For assay [2], the target named is T1, SARS-CoV-2 B.1.617.2 Spike S1+S2 trimer (ECD, His tag) (SARS-CoV-2, Delta (B.1.617.2), L452R | T478K).
For assay [3], the target named is Wild-type SARS-CoV-2 full length spike trimer (SARS-CoV-2, wild type (Wuhan-Hu-1), UniProt P0DTC2).
For assay [4], the target named is T1, SARS-CoV-2 B.1.617.2 Spike S1+S2 trimer …. The source holds these as a separate data set.
Assay [5] deals with SARS-CoV-2 Spike Trimer, His Tag (BA.5/Omicron) (SARS-CoV-2, Omicron BA.5, strain).

Results on eleven molecules are retold here after paper PMC10069166 (Heliyon, 2023).

As usually defined, the Kd is the constant that tells how readily two partners part at equilibrium. Low values mean a tighter complex, high ones a looser complex.

Like-named read-outs stand apart in the source and are kept apart here. A value given as a limit tells only on which side of the number the result lay.

B1: 80R_5 antibody (antibody, V domains shown)
VH: EVQLVQSGGGVVQPGKSLRLSCKASGFAFSNYAMHWVRQAPGKGLEWVAVISYDGSYKYYADSVKGRFTISRDNSKNTLYLQMNSLRAEDTAVYYCARDRSYYLDYWGQGTLVTVSS
VL: TTLTQSPATLSLSPGERATLSCKASEDIGTALAWYQQKPGQAPRPLIFDGAILAPGIPDRFSGSGSGTDFTLTISRLEPEDFAVYYCHNVYSWPPTFGQGTKVEVK
In the case of B1, the Kd was less than 0.001 nM in assay [1]; 0.443 nM in assay [2]; 0.468 nM in assay [3]; 0.441 nM in assay [4]; 1.12 nM in assay [5].

B2: 80R_22 antibody (antibody, V domains shown)
VH: EVQLVQSGGGVVQPGKSLRLSCVASGFDFKSYAMHWVRQAPGKGLEWVAVISYDGSYKYYADSVKGRFTISRDNSKNTLYLQMNSLRAEDTAVYYCARDNAYYLDYWGQGTLVTVSS
VL: TTLTQSPATLSLSPGERATLSCHASEDIGTALAWYQQKPGQAPRPLIFYAAQLAPGIPDRFSGSGSGTDFTLTISRLEPEDFAVYYCAQYWSLPPTFGQGTKVEVK
Molecule B2 gave a Kd in assay [3] of 1.39 nM.

B3: 80R_6 antibody (antibody, V domains shown)
VH: EVQLVQSGGGVVQPGKSLRLSCTASGFNFSEYAMHWVRQAPGKGLEWVAVISYDGSYKYYADSVKGRFTISRDNSKNTLYLQMNSLRAEDTAVYYCARDRSYYLDYWGQGTLVTVSS
VL: TTLTQSPATLSLSPGERATLSCKASEDIGSNLAWYQQKPGQAPRPLIFDAAQLAPGIPDRFSGSGSGTDFTLTISRLEPEDFAVYYCFQIYTWPPTFGQGTKVEVK
As to B3, in assay [3], the Kd was found to be 4.16 nM.

B4: 80R antibody (antibody, V domains shown)
VH: EVQLVQSGGGVVQPGKSLRLSCAASGFAFSSYAMHWVRQAPGKGLEWVAVISYDGSNKYYADSVKGRFTISRDNSKNTLYLQMNSLRAEDTAVYYCARDRSYYLDYWGQGTLVTVSS
VL: TTLTQSPATLSLSPGERATLSCRASQSVRSNLAWYQQKPGQAPRPLIYDASTRATGIPDRFSGSGSGTDFTLTISRLEPEDFAVYYCQQRSNWPPTFGQGTKVEVK
In the case of B4, the binding result in assay [3] is “no binding”.

B5: 80R_18 antibody (antibody, V domains shown)
VH: EVQLVQSGGGVVQPGKSLRLSCVASGFNFSEYAMHWVRQAPGKGLEWVAVISYDGSYKYYADSVKGRFTISRDNSKNTLYLQMNSLRAEDTAVYYCARDNAYYLDYWGQGTLVTVSS
VL: TTLTQSPATLSLSPGERATLSCQASEDIGTNLAWYQQKPGQAPRPLIFDAAQLAPGIPDRFSGSGSGTQFTLTISRLEPEDFAVYYCQQIYNWPPSFGQGTKVEVK
In the case of B5, the Kd in assay [3] was determined as 2.68 nM.

B6: 80R_21 antibody (antibody, V domains shown)
VH: EVQLVQSGGGVVQPGKSLRLSCVASGFDFSKYAMHWVRQAPGKGLEWVAVISYDGSYKYYADSVKGRFTISRDNSKNTLYLQMNSLRAEDTAVYYCARDNAYYLDYWGQGTLVTVSS
VL: TTLTQSPATLSLSPGERATLSCKASEDIGTNLAWYQQKPGQAPRPLIFDAAILAPGIPDRFSGSGSGTDFTLTISRLEPEDFAVYYCMQIYNWPPSFGQGTKVEVK
B6 yielded a Kd in assay [3] of 3.1 nM.

B7: 80R_7 antibody (antibody, V domains shown)
VH: EVQLVQSGGGVVQPGKSLRLSCQASGFDFKSYAMHWVRQAPGKGLEWVAVISYDGSIKHYADSVKGRFTISRDNSKNTLYLQMNSLRAEDTAVYYCARDRSYYLDYWGQGTLVTVSS
VL: TTLTQSPATLSLSPGERATLSCIASQDIGTALAWYQQKPGQAPRPLIFDGAILAPGIPDRFSGSGAGTDFTLTISRLEPEDFAVYYCMQTWTLPVTFGQGTKVEVK
In assay [3], B7 registered a Kd of 2.85 nM.

B8: 80R_23 antibody (antibody, V domains shown)
VH: EVQLVQSGGGVVQPGKSLRLSCVASGFDFKSYAMHWVRQAPGKGLEWVAVISYDGSYKYYADSVKGRFTISRDNSKNTLYLQMNSLRAEDTAVYYCARDNAYYLDYWGQGTLVTVSS
VL: TTLTQSPATLSLSPGERATLSCHASEDIGTNLAWYQQKPGQAPRPLIFDGAQLAPGIPDRFSGSGSGTDFTLTISRLEPEDFAVYYCQQIYNWPPSFGQGTKVEVK
Regarding B8, the Kd in assay [2] turned out to be 0.625 nM; in assay [3], 0.858 nM.

B9: 80R_10 antibody (antibody, V domains shown)
VH: EVQLVQSGGGVVQPGKSLRLSCVASGFDFKSYAMHWVRQAPGKGLEWVAVISYDGRYKYYADSVKGRFTISRDNSKNTLYLQMNSLRAEDTAVYYCARDRSYYLDYWGQGTLVTVSS
VL: TTLTQSPATLSLSPGERATLSCHASEDIGTALAWYQQKPGQAPRPLIFYAAQLAPGIPDRFSGSGSGTDFTLTISRLEPEDFAVYYCFQSWTLPLTFGQGTKVEVK
On to B9, for which the Kd in assay [3] was 1.82 nM.

B10: 80R_19 antibody (antibody, V domains shown)
VH: EVQLVQSGGGVVQPGKSLRLSCVASGFDFKSYAMHWVRQAPGKGLEWVAVISYDGSYKYYADSVKGRFTISRDNSKNTLYLQMNSLRAEDTAVYYCARDNAYYLDYWGQGTLVTVSS
VL: TTLTQSPATLSLSPGERATLSCHASEDIGTNLAWYQQKPGQAPRPLIFDAAQLAPGIPDRFSGSGSGTDFTLTISRLEPEDFAVYYCMQIHNWPPSFGQGTKVEVK
In assay [3], B10 yielded a Kd of 0.845 nM.

B11: 80R_8 antibody (antibody, V domains shown)
VH: EVQLVQSGGGVVQPGKSLRLSCVASGFDFKNYAMHWVRQAPGKGLEWVAVISYDGKYKYYADSVKGRFTISRDNSKNTLYLQMNSLRAEDTAVYYCARDRSYYLDYWGQGTLVTVSS
VL: TTLTQSPATLSLSPGERATLSCIASQDIGTNLAWYQQKPGQAPRPLIFDGAILAPGIPDRFSGSGAGTDFTLTISRLEPEDFAVYYCQQTYNWPPTFGQGTKVEVK
As for B11, binding in assay [3] was characterised by a dissociation constant (Kd) of 114 nM.
